# Target: spike (trimeric, Wuhan) (SARS-CoV-2, UniProt P0DTC2)
binder,measurement,value
fibrin (protein) chain 1: ADSGEGDFLAEGGGVR chain 2: QGVNDNEEGFFSAR chain 3: YVATRDNCCILDERFGSYCPTTCGIADFLSTYQTKVDKDLQSLEDILHQVENKTSEVKQLIKAIQLTYNPDESSKPNMIDAATLKSRKMLEEIMKYEASILTHDSSIRYLQEIYNSNNQKIVNLKEKVAQLEAQCQEPCKDTVQIHDITGKDCQDIANKGAKQSGLYFIKPLKANQQFLVYCEIDGSGNGWTVFQKRLDGSVDFKKNWIQYKEGFGHLSPTGTTEFWLGNEKIHLISTQSAIPYALRVELEDWNGRTSTADYAMFKVGPEADKYRLTYAYFAGGDAGDAFDGFDFGDDPSDKFFTSHNGMQFSTWDNDNDKFEGNCAEQDGSGWWMNKCHAGHLNGVYYQGGTYSKASTPNGYDNGIIWATWKTRWYSMKKTTMKIIPFNRLTIGEGQQHHLGGAKQVRPEHPAETEYDSLYPEDDL,Kd,390 nM

# Source: paper PMC11424477 (2024)
